Data as given in patent US20030187247A1.

Legend:
[1] = target: HXBc2 mature gp120 expressed by COS-1 cells (HIV-1 (HXBc2 clone)) (UniProt P04578)
[2] = target: gp120 derived from the HIV-1 strain LAI (Repligen) (HIV-1 strain LAI) (UniProt P03377); assay: SPR (BIAcore), gp120 immobilized
[3] = target: gp120 derived from the HIV-1 strain LAI (Repligen) (HIV-1 strain LAI) (UniProt P03377); assay: BIAcore sandwich, same Fab injected twice (negative control); competitor: b6
[4] = target: gp120 derived from the HIV-1 strain LAI (Repligen) (HIV-1 strain LAI) (UniProt P03377); assay: BIAcore sandwich, Fab 2 on gp120 held by Fab 1; competitor (Fab 1): b13
[5] = target: gp120 derived from the HIV-1 strain LAI (Repligen) (HIV-1 strain LAI) (UniProt P03377); assay: BIAcore sandwich, Fab 2 on gp120 held by Fab 1; competitor (Fab 1): b12
[6] = target: gp120 derived from the HIV-1 strain LAI (Repligen) (HIV-1 strain LAI) (UniProt P03377); assay: BIAcore sandwich, Fab 2 on gp120 held by Fab 1; competitor (Fab 1): b6
[7] = target: gp120 derived from the HIV-1 strain LAI (Repligen) (HIV-1 strain LAI) (UniProt P03377); assay: SPR (BIAcore), kon/koff
[8] = target: HXBc2 gp120 mutant NO V1/V2 (HIV-1 (HXBc2 clone of strain LAI)) (UniProt P04578); assay: capture ELISA (D7324)
[9] = target: recombinant gp120 of HIV-1 strain IIIB (HIV-1 strain IIIB) (UniProt P04578); assay: inhibition ELISA, free gp120 titrated against plate-bound gp120
[10] = target: multimeric HXBc2 envelope glycoprotein complex on the transfected COS-1 cell surface (HIV-1 (HXBc2 clone)) (UniProt P04578); assay: Fab on transfected COS-1 cells, immunoprecipitation
[11] = target: HXBc2 mature gp120 expressed by COS-1 cells (HIV-1 (HXBc2 clone)) (UniProt P04578); assay: Fab on radiolabeled COS-1 cells, lysis, precipitation, gel densitometry
[12] = target: gp120 derived from the HIV-1 strain LAI (Repligen) (HIV-1 strain LAI) (UniProt P03377); assay: BIAcore sandwich, same Fab injected twice (negative control); competitor: b12
[13] = target: recombinant gp120 of HIV-1 strain IIIB (HIV-1 strain IIIB) (UniProt P04578); assay: SPR (BIAcore)

Substance | Ka [1] [M⁻¹] | koff [2] [s⁻¹] | kon [2] [M⁻¹ s⁻¹] | response (RU), background [3] [RU] | response (RU), background subtracted [4] [RU] | response (RU), background subtracted [5] [RU] | response (RU), background subtracted [6] [RU] | Ka [7] [M⁻¹] | Fab/reference serum binding ratio [8] | IC50 [9] [nM] | Fab concentration at saturation [10] [µg/mL] | excess of gp120 over gp160 immunoreacted [11] [%] | response (RU), background [12] [RU] | Ka [13] [M⁻¹]
Fab b6 | < 6e+06 | 0.00016 | 16000 | 38 | 21 | 17 | 0 | 9.7e+07 | 1.48 | 1 | > 150 |  |  | 
Fab b12 | 3e+07 | 0.00043 | 45000 |  | 22 | 0 |  | 1.1e+08 | 0.23 | 1 | 100 | > 50 | 17 | 
b12 IgG1 (antibody) |  |  |  |  |  |  |  |  |  |  |  |  |  | 1.3e+09
